Laboratory results from article PMC7110113, “Termination of non‐coding transcription in yeast relies on both an RNA Pol II CTD interaction domain and a CTD‐mimicking region in Sen1” (The EMBO Journal, 2020).
Residue numbers refer to the chain shown, from its start. Ends that are not written are not given here. FAM = 5,6-carboxyfluorescein

Key:
Assay in all cases: fluorescence polarisation; fluorescence anisotropy, equilibrium binding of Nrd1 CID variants to FAM-labelled NIM peptides; 10°C, 50 mM Na2HPO4, 100 mM NaCl, pH 8; 1:1 model with non-specific binding (DynaFit)
Conditions in all cases: both partners purified
Nrd1 CID M126A = molecular target: T1, Nrd1 CID M126A (S. cerevisiae, UniProt P53617 1-153, M126A)
T1 construct: source: recombinant, produced and purified as described previously (Kubicek et al, 2012)
T1 sequence (looked up): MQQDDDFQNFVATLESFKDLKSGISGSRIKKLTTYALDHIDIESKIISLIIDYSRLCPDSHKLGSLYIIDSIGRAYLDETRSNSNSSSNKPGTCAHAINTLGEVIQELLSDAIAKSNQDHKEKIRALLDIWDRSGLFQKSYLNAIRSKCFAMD

Nrd1 CID I130K = molecular target: T2, Nrd1 CID I130K (S. cerevisiae, UniProt P53617 1-153, I130K)
T2 construct: the construct for anisotropy is made as described previously (Kubicek et al, 2012); also called CID(I130K)-His6; source: recombinant, produced and purified as described previously (Kubicek et al, 2012); plasmid with T7 promoter
T2 sequence (looked up): T1 sequence (looked up) with A126M, I130K

Nrd1 CID I130N = molecular target: T3, Nrd1 CID I130N (S. cerevisiae, UniProt P53617 1-153, I130N)
T3 construct: the construct for anisotropy is made as described previously (Kubicek et al, 2012); also called CID(I130N)-His6; source: recombinant, produced and purified as described previously (Kubicek et al, 2012); plasmid with T7 promoter
T3 sequence (looked up): T1 sequence (looked up) with A126M, I130N

- Kd (Nrd1 CID M126A): 1.4 ± 0.07 µM
- Kd (Nrd1 CID I130K): 36.7 ± 4.6 µM
- Kd (Nrd1 CID I130N): 8.9 ± 0.5 µM
B1: Sen1 NIM peptide (Sen1 aa 2,052-2,063) (peptide, UniProt Q00416 2052-2063, looked up)
peptide: {FAM}-DDDEDDYTPSIS
notes: Sen1, S. cerevisiae, fragment harbouring aa 2,052-2,063; source: synthetic peptide
